Assay results taken from article PMC11430019 (bioRxiv, 2024).

Legend:
[1] = molecular target: HSV-2 gH ectodomain / gL heterodimeric complex (gH_(ecto)/gL) (HSV-2, UniProt P89445;P28278); test: cryo-EM structure
[2] = molecular target: HSV-2 gH ectodomain (gH_(ecto)) (HSV-2, UniProt P89445); test: cryo-EM structure
Chain of HSV-2 gH ectodomain (gH_(ecto)) (P89445 19-803): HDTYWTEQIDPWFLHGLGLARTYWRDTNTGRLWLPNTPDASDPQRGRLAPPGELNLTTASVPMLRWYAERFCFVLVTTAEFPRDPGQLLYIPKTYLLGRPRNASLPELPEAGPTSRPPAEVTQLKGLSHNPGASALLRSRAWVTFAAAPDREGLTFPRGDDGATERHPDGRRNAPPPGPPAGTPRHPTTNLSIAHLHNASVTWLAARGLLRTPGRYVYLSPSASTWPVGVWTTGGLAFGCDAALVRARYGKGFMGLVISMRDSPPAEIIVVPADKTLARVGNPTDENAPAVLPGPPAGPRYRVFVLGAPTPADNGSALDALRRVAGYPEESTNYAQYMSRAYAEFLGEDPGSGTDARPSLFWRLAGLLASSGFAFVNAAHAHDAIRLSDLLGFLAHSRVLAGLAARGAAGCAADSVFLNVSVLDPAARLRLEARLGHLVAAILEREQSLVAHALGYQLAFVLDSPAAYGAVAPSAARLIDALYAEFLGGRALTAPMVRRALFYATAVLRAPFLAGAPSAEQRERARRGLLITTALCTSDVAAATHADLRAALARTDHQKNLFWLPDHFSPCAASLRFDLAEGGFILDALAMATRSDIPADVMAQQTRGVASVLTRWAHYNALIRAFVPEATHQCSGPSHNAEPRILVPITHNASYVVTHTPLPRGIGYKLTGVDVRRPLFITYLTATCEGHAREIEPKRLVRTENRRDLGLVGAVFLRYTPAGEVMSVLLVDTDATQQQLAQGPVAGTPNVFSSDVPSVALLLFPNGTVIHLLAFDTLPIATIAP

Chain of HSV-2 gH ectodomain / gL heterodimeric complex (gH_(ecto)/gL) (P89445 19-803, chain 1 of 2): as the sequence (P89445 19-803) above
Chain of HSV-2 gH ectodomain / gL heterodimeric complex (gH_(ecto)/gL) (P28278 17-224, chain 2 of 2): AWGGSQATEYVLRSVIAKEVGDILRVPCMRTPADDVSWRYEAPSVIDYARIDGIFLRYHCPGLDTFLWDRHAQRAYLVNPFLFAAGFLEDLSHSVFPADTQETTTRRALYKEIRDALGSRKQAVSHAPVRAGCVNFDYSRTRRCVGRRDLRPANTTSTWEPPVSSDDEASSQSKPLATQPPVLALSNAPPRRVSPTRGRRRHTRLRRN

B1: CHL27 Fab (Fab, V domains shown)
VH: QIQLVQSGPELKKPGETVKISCRASGYTFTDYSMHWVKQAPGKGLQWMGWIDTETGEPTYADDFKGRFAFSLETSAITAYLQINNLKNEDTATYFCARGLSPYWGHGTLVTVSA
VL: NIVMTQSPKSMSMSVGERVTLSCKASENVGSYVSWYQQKPEQSPKLLIYGASIRHTGVPDRFAGSGSATDFTLTISSVQAEDLAAYHCGQTYSSPYTFGGGTKLEIK
binding result [1]: binds
binding result [2]: binds
